Results on one molecule are retold here after patent US20130101582A1, “Tiki1 and Tiki2, Wnt Inhibitors” (CHILDREN'S MEDICAL CENTER CORPORATION, priority 2010, published 2013).

The test system of test [1] is beta-catenin stabilization. Briefly: Beta-catenin stabilization in Wnt3a-expressing L cells, Western blotting. It counts as cell-based, mouse. The conditions noted are these: Wnt3a-producing L cells stably expressing human Tiki2. The protocol:
Wnt3a CM rescued Tiki2 inhibition of beta-catenin stabilization in Wnt3a-expressing cells. Indicated cell lines were treated with control or Wnt3a CM for 2 hrs and whole cell lysates (WCL) were subjected for Western blotting. Beta-tubulin was a loading control.
(§1) As Tiki proteins are related to bacterial proteins of unknown function, it was speculated that Tiki may antagonize Wnt signaling through a novel mechanism, possibly in an enzymatic fashion. Human Tiki2 was stably expressed in L cells or Wnt3a-expressing L cells (human Tiki1 was poorly expressed in L cells). […] In fact Wnt3a CM restored beta-catenin stabilization in Wnt3a-expressing cells that also expressed Tiki2 (FIG. 5A).

Test [2] has as its target T1, mFz8CRD-IgG (Mus musculus, UniProt Q61091).
T1 construct: using the extracellular domain of mouse Fz8 (mFz8CRD-IgG) or LRP6 (LRP6N-IgG)
T1 sequence (Q61091 30-151 limits assumed): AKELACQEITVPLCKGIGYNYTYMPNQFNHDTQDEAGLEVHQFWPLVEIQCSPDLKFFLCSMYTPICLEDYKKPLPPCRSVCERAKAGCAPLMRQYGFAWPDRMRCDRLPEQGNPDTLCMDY
Briefly: Binding of Wnt3a CM to mFz8CRD-IgG, protein G precipitation. The protocol:
(§2) Wnt3a CM was incubated with LRP6N-IgG or mFz8CRD-IgG. The protein complexes were precipitated by protein G agarose and subjected for Western blotting.
as §1

Test [3] has as its target T2, LRP6N-IgG (Homo sapiens, UniProt O75581).
T2 construct: using the extracellular domain of mouse Fz8 (mFz8CRD-IgG) or LRP6 (LRP6N-IgG)
T2 sequence (O75581 20-1370 limits assumed): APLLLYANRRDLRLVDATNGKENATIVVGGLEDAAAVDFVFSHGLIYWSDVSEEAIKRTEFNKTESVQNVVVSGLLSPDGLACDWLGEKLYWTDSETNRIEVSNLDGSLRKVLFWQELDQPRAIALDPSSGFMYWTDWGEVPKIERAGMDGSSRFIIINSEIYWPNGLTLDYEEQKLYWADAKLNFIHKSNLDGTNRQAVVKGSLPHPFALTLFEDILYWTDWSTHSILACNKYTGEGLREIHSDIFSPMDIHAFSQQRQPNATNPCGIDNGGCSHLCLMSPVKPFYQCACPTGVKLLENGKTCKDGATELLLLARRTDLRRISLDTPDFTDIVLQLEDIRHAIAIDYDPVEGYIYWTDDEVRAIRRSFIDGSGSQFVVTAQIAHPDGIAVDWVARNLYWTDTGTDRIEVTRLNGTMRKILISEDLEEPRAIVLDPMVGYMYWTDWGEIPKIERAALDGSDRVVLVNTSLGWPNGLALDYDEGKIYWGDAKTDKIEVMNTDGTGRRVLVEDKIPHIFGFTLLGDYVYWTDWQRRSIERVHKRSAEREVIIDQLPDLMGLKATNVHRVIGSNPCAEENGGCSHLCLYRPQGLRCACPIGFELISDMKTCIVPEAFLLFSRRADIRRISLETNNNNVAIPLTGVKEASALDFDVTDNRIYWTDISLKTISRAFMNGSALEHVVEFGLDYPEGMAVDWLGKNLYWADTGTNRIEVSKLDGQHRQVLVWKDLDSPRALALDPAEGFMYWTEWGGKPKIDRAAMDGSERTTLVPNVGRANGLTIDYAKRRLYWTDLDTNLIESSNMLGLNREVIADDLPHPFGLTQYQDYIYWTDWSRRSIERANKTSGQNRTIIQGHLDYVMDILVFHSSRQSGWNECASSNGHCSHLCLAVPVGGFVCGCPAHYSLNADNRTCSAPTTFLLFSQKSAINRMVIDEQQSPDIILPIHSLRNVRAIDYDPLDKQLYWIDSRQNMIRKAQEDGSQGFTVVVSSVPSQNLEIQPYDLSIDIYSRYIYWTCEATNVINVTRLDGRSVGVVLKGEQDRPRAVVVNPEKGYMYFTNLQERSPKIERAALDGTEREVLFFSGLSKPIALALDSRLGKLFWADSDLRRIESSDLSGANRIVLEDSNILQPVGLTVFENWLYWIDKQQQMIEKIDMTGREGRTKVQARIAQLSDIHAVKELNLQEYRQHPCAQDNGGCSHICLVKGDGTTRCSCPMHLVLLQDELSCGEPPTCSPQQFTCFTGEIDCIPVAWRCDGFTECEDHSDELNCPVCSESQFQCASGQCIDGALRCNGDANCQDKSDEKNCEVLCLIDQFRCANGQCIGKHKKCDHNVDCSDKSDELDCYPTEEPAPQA
Put plainly: Binding of Wnt3a CM to LRP6N-IgG, protein G precipitation. The protocol: as §2, §1

The target in test [4] is Wnt3a (Mus musculus, UniProt P27467). Put plainly: Triton X-114 phase separation of Wnt3a secreted from Tiki-expressing cells. The arrangement: expressed in transfected cells; host or cells: mouse L cells (Wnt3a-expressing); HEK293T. It counts as cell-based. An excerpt: FIG. 6A is a gel showing that Tiki inactivates Wnt3a by regulating Wnt3a acylation/palmitoylation. A Triton X-114 phase separation experiment is shown in 6A. […] T, total; Aq, aqueous; De, detergent.
FIG. 6B is a gel showing that Wnt3a secreted from Tiki1 or Tiki2 but not GFP-expressing HEK293T cells partitioned in the aqueous phase.
C77 palmitoylation is required for Wnt3a activity (Willert, K. et al., Nature 423, 448-452 (2003)) and binding to both Fz and LRP6 (Komekado, H. et al., Genes Cells 12, 521-534 (2007); Cong, F. et al., Development 131, 5103-5115 (2004)), while S209 acylation is critical for Wnt3a secretion (Takada, R. et al., Dev Cell 11, 791-801 (2006)). Thus Tiki proteins may affect C77 palmitoylation but not S209 acylation. The palmitate adduct at C77 is the primary contributor to Wnt3a hydrophobicity because palmitoylated Wnt3a is partitioned in the Triton X-114 detergent phase whereas Wnt3a lacking the palmitate is soluble in the aqueous phase (Willert, K. et al., Nature 423, 448-452 (2003); Komekado, H. et al., Genes Cells 12, 521-534 (2007)).

Wnt3a, sequence (P27467 19-352): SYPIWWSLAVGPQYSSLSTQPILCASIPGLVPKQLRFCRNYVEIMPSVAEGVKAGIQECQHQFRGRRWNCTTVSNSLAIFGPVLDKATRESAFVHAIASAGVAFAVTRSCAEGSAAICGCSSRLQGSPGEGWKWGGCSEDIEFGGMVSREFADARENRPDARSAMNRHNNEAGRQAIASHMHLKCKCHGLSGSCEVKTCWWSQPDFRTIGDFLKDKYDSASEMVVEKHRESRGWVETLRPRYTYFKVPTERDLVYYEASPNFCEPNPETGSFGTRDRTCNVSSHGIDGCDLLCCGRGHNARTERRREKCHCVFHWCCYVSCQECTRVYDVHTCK

B1: Tiki2: Human Tiki2 (XP 371250/LOC388630) (SEQ ID NO:2), expressed in L or HEK293T cells (protein, listed as Homo sapiens)
chain: MHAALAGPLLAALLATARARPQPPDGGQCRPPGSQRDLNSFLWTIRRDPPAYLFGTIHVPYTRVWDFIPDNSKAAFQASTRVYFELDLTDPYTISALASCQLLPHGENLQDVLPHELYWRLKRHLDYVKLMMPSWMTPAQRGKGLYADYLFNAIAGNWERKRPVWVMLMVNSLTERDVRFRGVPVLDLYLAQQAEKMKKTTGAVEQVEEQCHPLNNGLNFSQVLFALNQTLLQQESVRAGSLQASYTTEDLIKHYNCGDLSAVIFNHDTSQLPNFINTTLPPHEQVTAQEIDSYFRQELIYKRNERMGKRVMALLRENEDKICFFAFGAGHFLGNNTVIDILRQAGLEVDHTPAGQAIHSPAPQSPAPSPEGTSTSPAPVTPAAAVPEAPSVTPTAPPEDEDPALSPHLLLPDSLSQLEEFGRQRKWHKRQSTHQRPRQFNDLWVRIEDSTTASPPPLPLQPTHSSGTAKPPFQLSDQLQQQDPPGPASSSAPTLGLLPAIATTIAVCFLLHSLGPS
Regarding B1, the Beta-catenin stabilization entry in test [1] was “inhibited beta-catenin stabilization”. Further, the “Binding of Wnt3a secreted from Tiki2-expressing cells to Fz (mFz8CRD-IgG)” value in test [2] is “failed to bind to either Fz or LRP6”. Moreover, the “Binding of Wnt3a secreted from Tiki2-expressing cells to LRP6 (LRP6N-IgG)” value in test [3] is recorded as “failed to bind to either Fz or LRP6”. Moreover, the “Partitioning of secreted Wnt3a in Triton X-114 phase separation” value in test [4] (HEK293T cells) and in test [4] (L cells) was “partitioned exclusively in the aqueous phase” in each case.
